Data on 20 substances can be found in patent US20090291890A1 (published 2009).

Values joined by “and” are separate entries in the source; they are usually repeats but may differ in a detail not shown here. Equal entries are not always repeated.

For assay [1], the target named is Factor X (Homo sapiens (Human)) (UniProt P00742).
The target of the next assay is T1, Mesyl-dFPR-ACC.
T1 sequence (peptide, N-terminal mesyl; D-Phe at position 1 (dF); C-terminal ACC fluorophore): FPR

Turning to “{Gla swap FIX/K43I}/Q286R/M298Q-FVIIa (enzyme)”, in assay [1], the kcat/KM (M^-1s^-1), TF-dependent assay was 2.73e+08 M⁻¹ s⁻¹ and 2.91e+08 M⁻¹ s⁻¹; the kcat/KM, TF-independent assay is 902 M⁻¹ s⁻¹ and 794 M⁻¹ s⁻¹. Besides, the Activity (µmol/sec/µmol), specific activity for mesyl-dFPR-ACC (µmol/sec/µmol) in the assay with Mesyl-dFPR-ACC was found to be 1.2.
On to T128N/P129A/Q286R/H373F-FVIIa (enzyme), for which, in assay [1], the kcat/KM (M^-1s^-1), TF-dependent assay worked out at 6.91e+07 M⁻¹ s⁻¹ and the kcat/KM, TF-independent assay worked out at 6.6 M⁻¹ s⁻¹. The same substance returned an Activity (µmol/sec/µmol), specific activity for mesyl-dFPR-ACC (µmol/sec/µmol) with Mesyl-dFPR-ACC of 2.31.
As for “GlaSwapFIX/S222A/T239I/Q286R-FVIIa (enzyme)”, the kcat/KM (M^-1s^-1), TF-dependent assay in assay [1] came to 6.77e+07 M⁻¹ s⁻¹. Further, the Activity (µmol/sec/µmol), specific activity for mesyl-dFPR-ACC (µmol/sec/µmol) with Mesyl-dFPR-ACC is 0.25.
For “{Gla swap FIX/M19K}/Q286R/M298Q-FVIIa (enzyme)”, in assay [1], the kcat/KM (M^-1s^-1), TF-dependent assay stood at 1.41e+08 M⁻¹ s⁻¹ and the kcat/KM, TF-independent assay came out at 512 M⁻¹ s⁻¹. The Activity (µmol/sec/µmol), specific activity for mesyl-dFPR-ACC (µmol/sec/µmol) in the assay with Mesyl-dFPR-ACC came out at 1.26.
In the same order, the values of “S52A/S60A/Q286R/M298Q/H373F-FVIIa (enzyme)” are 1.77e+08 M⁻¹ s⁻¹, 63.3 M⁻¹ s⁻¹ and 5.02.
As for T128N/P129A/Q286R-FVIIa (enzyme), in assay [1], the kcat/KM (M^-1s^-1), TF-dependent assay is 8.45e+07 M⁻¹ s⁻¹ and 6.2e+07 M⁻¹ s⁻¹; the kcat/KM, TF-independent assay is 8.7 M⁻¹ s⁻¹ and 10.5 M⁻¹ s⁻¹. Also, in the assay with Mesyl-dFPR-ACC, the Activity (µmol/sec/µmol), specific activity for mesyl-dFPR-ACC (µmol/sec/µmol) came to 1.21.
For the substance A122N/G124S/A175S/S222A-FVIIa (enzyme), in assay [1], the kcat/KM (M^-1s^-1), TF-dependent assay was found to be 2.08e+07 M⁻¹ s⁻¹. Besides, the Activity (µmol/sec/µmol), specific activity for mesyl-dFPR-ACC (µmol/sec/µmol) with Mesyl-dFPR-ACC was determined as 2.68.
With “Gla swap FIX/T239I/Q286R/M298Q-FVIIa (enzyme)”, in assay [1], the kcat/KM (M^-1s^-1), TF-dependent assay came to 1.25e+08 M⁻¹ s⁻¹ and the kcat/KM, TF-independent assay is 244 M⁻¹ s⁻¹. The substance also registered an Activity (µmol/sec/µmol), specific activity for mesyl-dFPR-ACC (µmol/sec/µmol) with Mesyl-dFPR-ACC of 0.67.
In the same order, the values of T128N/P129A/A175S/Q286R-FVIIa (enzyme) are 3.33e+07 M⁻¹ s⁻¹, 3.3 M⁻¹ s⁻¹ and 1.88.
In the same order, the values of “{Gla swap FIX/Q44S}/Q286R/M298Q-FVIIa (enzyme)” are 1.98e+08 M⁻¹ s⁻¹, 729 M⁻¹ s⁻¹ and 1.11.
Regarding V158D/E296V/M298Q-FVIIa (enzyme), in assay [1], the kcat/KM (M^-1s^-1), TF-dependent assay was 1.81e+08 M⁻¹ s⁻¹ and 1.65e+08 M⁻¹ s⁻¹; the kcat/KM, TF-independent assay is 1220 M⁻¹ s⁻¹ and 984 M⁻¹ s⁻¹. In the assay with Mesyl-dFPR-ACC, this substance showed an Activity (µmol/sec/µmol), specific activity for mesyl-dFPR-ACC (µmol/sec/µmol) of 3.28.
On to “A122N/G124S/A175S/S222A/H257A/Q286R/M298Q-FVIIa (enzyme)”, for which the kcat/KM, TF-dependent assay in assay [1] stood at 8.4e+07 M⁻¹ s⁻¹. Moreover, in the assay with Mesyl-dFPR-ACC, the Activity (µmol/sec/µmol), specific activity for mesyl-dFPR-ACC (µmol/sec/µmol) amounted to 1.99.
Turning to “T128N/P129A/A175S/Q286R/M298Q/H373F-FVIIa (enzyme)”, the kcat/KM, TF-dependent assay in assay [1] is 5.72e+07 M⁻¹ s⁻¹. For the same substance, in the assay with Mesyl-dFPR-ACC, the Activity (µmol/sec/µmol), specific activity for mesyl-dFPR-ACC (µmol/sec/µmol) amounted to 2.78.
Consider “Gla swap FIX/T239V/Q286R/M298Q-FVIIa (enzyme)”, for which the kcat/KM (M^-1s^-1), TF-dependent assay in assay [1] was 2.53e+08 M⁻¹ s⁻¹ and 1.79e+08 M⁻¹ s⁻¹. Moreover, in the assay with Mesyl-dFPR-ACC, the Activity (µmol/sec/µmol), specific activity for mesyl-dFPR-ACC (µmol/sec/µmol) came out at 1.13.
As for “Gla swap FIX/S222A/Q286R/H373F-FVIIa (enzyme)”, in assay [1], the kcat/KM (M^-1s^-1), TF-dependent assay is 1.22e+08 M⁻¹ s⁻¹ and the kcat/KM, TF-independent assay amounted to 81.2 M⁻¹ s⁻¹. In the assay with Mesyl-dFPR-ACC, this substance showed an Activity (µmol/sec/µmol), specific activity for mesyl-dFPR-ACC (µmol/sec/µmol) of 1.37.
Regarding “A122N/G124S/A175S/Q286R/M298Q/H373F-FVIIa (enzyme)”, the kcat/KM, TF-dependent assay in assay [1] was found to be 8.39e+07 M⁻¹ s⁻¹. The same substance showed an Activity (µmol/sec/µmol), specific activity for mesyl-dFPR-ACC (µmol/sec/µmol) with Mesyl-dFPR-ACC of 2.71.
Consider “Gla swap FIX/S222A/T239V/Q286R-FVIIa (enzyme)”, for which the kcat/KM (M^-1s^-1), TF-dependent assay in assay [1] was 2.03e+08 M⁻¹ s⁻¹ and 9.94e+07 M⁻¹ s⁻¹. The substance also displayed an Activity (µmol/sec/µmol), specific activity for mesyl-dFPR-ACC (µmol/sec/µmol) in the assay with Mesyl-dFPR-ACC of 0.66.
With Q286R-FVIIa (enzyme), in assay [1], the kcat/KM (M^-1s^-1), TF-dependent assay was determined as 8.06e+07 M⁻¹ s⁻¹ and the kcat/KM, TF-independent assay came to 10.3 M⁻¹ s⁻¹. The substance further gave an Activity (µmol/sec/µmol), specific activity for mesyl-dFPR-ACC (µmol/sec/µmol) with Mesyl-dFPR-ACC of 1.24.
Consider “Gla swap FIX/T128N/P129A/Q286R/M298Q-FVIIa (enzyme)”, for which the kcat/KM (M^-1s^-1), TF-dependent assay in assay [1] is 2.11e+08 M⁻¹ s⁻¹ and 1.99e+08 M⁻¹ s⁻¹. This substance came in with an Activity (µmol/sec/µmol), specific activity for mesyl-dFPR-ACC (µmol/sec/µmol) in the assay with Mesyl-dFPR-ACC of 0.78.
In the case of A122N/G124S/A175S/Q286R-FVIIa (enzyme), in assay [1], the kcat/KM (M^-1s^-1), TF-dependent assay turned out to be 4.11e+07 M⁻¹ s⁻¹ and the kcat/KM, TF-independent assay worked out at 3 M⁻¹ s⁻¹. Also, in the assay with Mesyl-dFPR-ACC, the Activity (µmol/sec/µmol), specific activity for mesyl-dFPR-ACC (µmol/sec/µmol) stood at 2.16.
